Here are results for four substances from patent publication US20240294945A1.

What all share (assay): cell-based or functional assay
The target of experiment [1] is TALE-free DddAtox half G1333-N (Burkholderia cenocepacia) (UniProt P0DUH5).
Experiment [2] concerns the target TALE-free DddAtox half G1397-N (Burkholderia cenocepacia) (UniProt P0DUH5).
Experiment [3] concerns the target TALE-free DddAtox half G1333-C (Burkholderia cenocepacia) (UniProt P0DUH5).
Experiment [4] concerns the target right-TALE:G1333-C, mtND1-targeted DdCBE subunit (Burkholderia cenocepacia).
Experiment [5] concerns the target right-TALE:G1397C (the C-terminal G1397 DddAtox half fused to the C-terminus of the right-TALE array (Burkholderia cenocepacia)).
For experiment [6], the target named is TALE-free DddAtox half G1397-C (Burkholderia cenocepacia).

Take “right-TALE:G1333-C, mtND1-targeted DdCBE subunit”: the base editing efficiency at position C8 of the mtND1 target, HEK293T in experiment [1] amounted to 18.1%.

Substance “right-TALE:G1397C (the C-terminal G1397 DddAtox half fused to the C-terminus of the right-TALE array” gave a base editing efficiency at the mtND1 target, HEK293T in experiment [2] of 8.1%.

For the substance “left-TALE:G1333-N, mtND1-targeted DdCBE subunit”, the base editing efficiency at position C8 of the mtND1 target, HEK293T in experiment [3] came to 32.7%; in experiment [4] it was 56.1%.

The substance “left-TALE:G1397N (the N-terminal G1397 DddAtox half fused to the C-terminus of the left-TALE array),” had a cytosine-to-thymine editing efficiency at C11 of the mtND1 target, HEK293T in experiment [5] of 60.7%. The same substance returned a base editing efficiency at the mtND1 target, HEK293T in experiment [6] of 31%.
